{"source": "paper PMC4005696", "about": "“Type III restriction endonucleases are heterotrimeric: comprising one helicase–nuclease subunit and a dimeric methyltransferase that binds only one specific DNA” (Nucleic Acids Research, 2014)", "key": {"[1]": {"target": "EcoPI Res subunit (wild type, untagged) (Escherichia coli)", "experiment": "native MS; enzyme only, 10 µM, dialysed against 100 mM ammonium acetate pH 7.0; Q-TOF II modified for high-mass operation"}, "[2]": {"target": "EcoPI Res subunit (wild type, untagged) (Escherichia coli)", "experiment": "SEC-MALS; 0.5–1.0 mg/ml (1.25–2.5 µM) enzyme, Superdex 200, Standard Assay Buffer minus BSA (50 mM Tris–HCl pH 8.0, 50 mM KCl, 10 mM MgCl2, 1 mM DTT), room temperature; enzyme alone or with excess Hex-labelled specific 50-mer DNA, with or without 1 mM ATP"}, "PstII Mod subunit": {"target": "PstII Mod subunit", "experiment": "SEC-MALS; 0.5–1.0 mg/ml (1.25–2.5 µM) enzyme, Superdex 200, Standard Assay Buffer minus BSA (50 mM Tris–HCl pH 8.0, 50 mM KCl, 10 mM MgCl2, 1 mM DTT), room temperature; enzyme alone or with excess Hex-labelled specific 50-mer DNA, with or without 1 mM ATP"}, "PstII Res subunit": {"target": "PstII Res subunit", "experiment": "SEC-MALS; 0.5–1.0 mg/ml (1.25–2.5 µM) enzyme, Superdex 200, Standard Assay Buffer minus BSA (50 mM Tris–HCl pH 8.0, 50 mM KCl, 10 mM MgCl2, 1 mM DTT), room temperature; enzyme alone or with excess Hex-labelled specific 50-mer DNA, with or without 1 mM ATP"}, "[3]": {"target": "T1, EcoP15I Res subunit R534A (Escherichia coli, UniProt Q5ZND2 1-970, R534A)", "T1 construct": "Res subunit of the Type III restriction endonuclease EcoP15I, Escherichia coli; mutated in Motif VI of the helicase, lacks ATPase activity; also called R534A EcoP15I; R534A P15I; source: purified identically to the wild-type (DEAE-Sepharose, heparin, Superdex 200), co-purified with Mod", "T1 sequence (looked up)": "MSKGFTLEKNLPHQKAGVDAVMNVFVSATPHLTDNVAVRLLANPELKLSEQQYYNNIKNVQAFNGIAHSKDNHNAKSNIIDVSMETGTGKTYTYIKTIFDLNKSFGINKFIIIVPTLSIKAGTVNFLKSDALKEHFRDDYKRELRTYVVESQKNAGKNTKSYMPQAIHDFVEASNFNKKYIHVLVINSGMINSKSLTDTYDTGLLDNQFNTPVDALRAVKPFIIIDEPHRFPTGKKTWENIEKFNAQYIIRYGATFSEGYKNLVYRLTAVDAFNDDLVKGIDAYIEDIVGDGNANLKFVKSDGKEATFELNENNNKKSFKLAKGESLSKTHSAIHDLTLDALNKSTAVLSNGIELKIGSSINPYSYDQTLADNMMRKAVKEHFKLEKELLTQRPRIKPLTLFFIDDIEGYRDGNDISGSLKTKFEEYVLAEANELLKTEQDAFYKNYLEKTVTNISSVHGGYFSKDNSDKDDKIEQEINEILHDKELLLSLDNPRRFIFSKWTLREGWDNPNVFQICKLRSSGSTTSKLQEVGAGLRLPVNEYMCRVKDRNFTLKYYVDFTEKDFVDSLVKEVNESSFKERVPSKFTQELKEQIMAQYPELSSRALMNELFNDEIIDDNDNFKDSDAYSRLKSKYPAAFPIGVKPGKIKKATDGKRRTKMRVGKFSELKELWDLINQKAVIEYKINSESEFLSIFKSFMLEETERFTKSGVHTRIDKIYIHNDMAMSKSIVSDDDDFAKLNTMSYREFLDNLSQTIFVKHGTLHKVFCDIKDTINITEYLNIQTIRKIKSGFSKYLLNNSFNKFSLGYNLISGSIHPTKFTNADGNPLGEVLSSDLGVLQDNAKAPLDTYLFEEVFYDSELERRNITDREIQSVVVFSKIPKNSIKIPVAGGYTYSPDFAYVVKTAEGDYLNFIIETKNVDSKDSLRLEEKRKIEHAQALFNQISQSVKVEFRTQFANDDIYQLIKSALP", "experiment": "SEC-MALS; 0.5–1.0 mg/ml (1.25–2.5 µM) enzyme, Superdex 200, Standard Assay Buffer minus BSA (50 mM Tris–HCl pH 8.0, 50 mM KCl, 10 mM MgCl2, 1 mM DTT), room temperature; enzyme alone or with excess Hex-labelled specific 50-mer DNA, with or without 1 mM ATP", "conditions": "both partners purified"}, "[4]": {"target": "the molecule itself", "experiment": "native MS; wt EcoP15I 5 µM with 10 µM 50-mer DNA (1:2), 2 mM magnesium acetate (4 mM MgOAc and 2 mM ATP where ATP was added), buffer-exchanged into 100 mM ammonium acetate; Synapt G2 HDMS"}, "[5]": {"target": "T2, EcoP15I Res subunit with C-terminal Avi-tag, biotinylated (Escherichia coli, UniProt Q5ZND2 1-970, biotin on the Avi-tag (co-expressed biotin ligase))", "T2 construct": "Res subunit of the Type III restriction endonuclease EcoP15I, Escherichia coli; also called biotinylated EcoP15I; bio-EcoP15I; not shown: Avi-tag, C-terminal, kept", "T2 sequence (looked up)": "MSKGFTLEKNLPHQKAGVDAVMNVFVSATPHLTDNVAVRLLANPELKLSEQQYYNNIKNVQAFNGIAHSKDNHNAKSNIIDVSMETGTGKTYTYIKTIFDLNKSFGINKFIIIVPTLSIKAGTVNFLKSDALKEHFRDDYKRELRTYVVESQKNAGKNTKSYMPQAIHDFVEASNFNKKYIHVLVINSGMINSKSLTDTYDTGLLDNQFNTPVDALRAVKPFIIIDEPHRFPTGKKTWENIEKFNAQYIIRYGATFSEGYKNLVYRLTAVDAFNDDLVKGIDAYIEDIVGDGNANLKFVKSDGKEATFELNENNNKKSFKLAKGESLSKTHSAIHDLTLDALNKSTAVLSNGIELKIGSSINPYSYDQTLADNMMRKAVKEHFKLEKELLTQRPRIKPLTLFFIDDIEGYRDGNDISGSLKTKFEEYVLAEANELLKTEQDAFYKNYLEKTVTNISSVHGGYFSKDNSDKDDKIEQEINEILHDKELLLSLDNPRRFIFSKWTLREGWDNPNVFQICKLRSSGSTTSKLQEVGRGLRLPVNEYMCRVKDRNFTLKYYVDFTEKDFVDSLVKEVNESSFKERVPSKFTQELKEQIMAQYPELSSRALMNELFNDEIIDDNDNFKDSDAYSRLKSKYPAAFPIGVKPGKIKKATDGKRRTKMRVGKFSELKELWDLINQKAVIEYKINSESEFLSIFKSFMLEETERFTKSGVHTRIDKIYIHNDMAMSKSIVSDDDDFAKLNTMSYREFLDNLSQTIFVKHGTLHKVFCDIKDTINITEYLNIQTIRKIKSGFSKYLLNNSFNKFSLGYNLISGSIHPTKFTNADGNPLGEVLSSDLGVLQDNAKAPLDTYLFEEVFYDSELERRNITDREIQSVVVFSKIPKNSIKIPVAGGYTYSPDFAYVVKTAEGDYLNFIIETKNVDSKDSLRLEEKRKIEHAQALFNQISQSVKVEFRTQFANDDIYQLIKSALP", "experiment": "native MS; enzyme only, 10 µM, dialysed against 100 mM ammonium acetate pH 7.0; Q-TOF II modified for high-mass operation", "conditions": "both partners purified"}, "[6]": {"target": "T3, EcoP15I Res subunit (wild type, untagged) (Escherichia coli, UniProt Q5ZND2 1-970)", "T3 construct": "Res (restriction) subunit of the Type III restriction endonuclease EcoP15I, Escherichia coli; Made only together with Mod from the natural operon; also called wt EcoP15I", "T3 sequence (looked up)": "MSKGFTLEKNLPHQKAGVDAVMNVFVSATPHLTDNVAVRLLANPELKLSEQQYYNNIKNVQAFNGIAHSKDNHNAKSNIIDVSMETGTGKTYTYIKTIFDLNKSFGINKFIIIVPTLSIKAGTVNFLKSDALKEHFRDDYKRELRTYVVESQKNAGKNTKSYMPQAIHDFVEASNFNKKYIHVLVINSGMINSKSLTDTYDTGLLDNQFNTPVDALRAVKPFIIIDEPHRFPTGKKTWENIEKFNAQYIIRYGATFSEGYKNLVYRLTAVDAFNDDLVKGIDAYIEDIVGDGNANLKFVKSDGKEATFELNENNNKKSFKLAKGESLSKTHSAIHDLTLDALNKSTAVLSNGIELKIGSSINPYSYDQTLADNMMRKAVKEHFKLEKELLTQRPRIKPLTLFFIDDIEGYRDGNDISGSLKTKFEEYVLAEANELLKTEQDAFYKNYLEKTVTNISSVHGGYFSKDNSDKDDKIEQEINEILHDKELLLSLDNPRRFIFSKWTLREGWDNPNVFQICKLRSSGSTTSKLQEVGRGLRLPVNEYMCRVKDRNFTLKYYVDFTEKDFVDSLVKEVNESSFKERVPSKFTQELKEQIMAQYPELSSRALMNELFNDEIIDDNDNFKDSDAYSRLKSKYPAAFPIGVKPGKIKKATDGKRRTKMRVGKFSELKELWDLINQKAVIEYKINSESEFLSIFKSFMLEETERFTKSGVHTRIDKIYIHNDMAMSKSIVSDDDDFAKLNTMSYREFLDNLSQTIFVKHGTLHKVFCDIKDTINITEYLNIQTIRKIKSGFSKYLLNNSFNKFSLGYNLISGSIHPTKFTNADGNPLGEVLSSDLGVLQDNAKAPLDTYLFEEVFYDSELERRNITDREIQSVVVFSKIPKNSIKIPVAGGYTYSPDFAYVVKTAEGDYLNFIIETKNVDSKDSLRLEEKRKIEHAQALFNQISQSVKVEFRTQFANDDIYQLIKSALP", "experiment": "native MS; enzyme only, 10 µM, dialysed against 100 mM ammonium acetate pH 7.0; Q-TOF II modified for high-mass operation", "conditions": "both partners purified"}}, "data": [{"molecule": "EcoPI Mod subunit (untagged) (enzyme)", "values": [{"measurement": "stoichiometry N", "setting": "[1]", "value": 2, "unit": "Mod per Res"}, {"measurement": "stoichiometry N", "setting": "[2]", "value": 2, "unit": "Mod per Res"}]}, {"molecule": "PstII Mod subunit (enzyme)", "values": [{"measurement": "stoichiometry N", "setting": "PstII Mod subunit", "value": 2}, {"measurement": "stoichiometry N", "setting": "PstII Res subunit", "value": 2, "unit": "Mod per Res"}]}, {"molecule": "EcoP15I Mod subunit (untagged) (enzyme, Escherichia coli, UniProt P12364 1-644, looked up, Mod (modification) subunit of the Type III restriction endonuclease EcoP15I, Escherichia coli; also called Mod2 (as dimer); source: with biotinylated Res: avidin resin, Mono-Q) MKKETIFSEVETANSKQLAVLKANFPQCFDKNGAFIQEKLLEIIRASEVELSKESYSLNWLGKSYARLLANLPPKTLLAEDKTHNQQEENKNSQHLLIKGDNLEVLKHMVNAYAEKVKMIYIDPPYNTGKDGFVYNDDRKFTPEQLSELAGIDLDEAKRILEFTTKGSSSHSAWLTFIYPRLYIARELMREDGTIFISIDHNEFSQLKLVCDEIFGEQNHVGDLVWKNATDNNPSNIAVEHEYIIVYTKNKEQLISEWKSNISDVKNLLVNIGEEFASKYTGNELQEKYTQWFREHRSELWPLDRYKYIDKDGIYTGSQSVHNPGKEGYRYDIIHPKTKKPCKQPLMGYRFPLDTMDRLLSEEKIIFGDDENKIIELKVYAKDYKQKLSSVIHLDGRVATNELKELFPEMTQPFTNAKTIKLVEDLISFACDGEGIVLDFFAGSGTTAHTVFNLNNKNKTSYQFITVQLDEPTKDKSDAMKHGYNTIFDLTKERLIRASKKNRDQGFKVYQLMPDFRAKDESELTLSNHTFFDDVVLTPEQYDTLLTTWCLYDGSLLTTPIEDVDLGGYKAHLCDGRLYLIAPNFTSEALKALLQKVDSDKDFAPNKVVFYGSNFESAKQMELNEALKSYANKKSIELDLVVRN", "values": [{"measurement": "binding result", "setting": "[3]", "value": "binds"}, {"measurement": "stoichiometry N", "setting": "[4]", "value": 2}, {"measurement": "stoichiometry N", "setting": "[5]", "value": 2, "unit": "Mod per Res"}, {"measurement": "stoichiometry N", "setting": "[6]", "value": 2, "unit": "Mod per Res"}]}]}
